Measurements: patent US12630600B2 (MEDIMMUNE LIMITED, priority 2022, dated 2026)
Starred links: 1 amine or outer side, 2 acyl side, 3 side chain; linkers in the order of their positions; H or OH if unused. Non-standard residues stand in square brackets, D forms with d. Groups on a side chain read outwards from the residue. No end group written: not given here. *: point of attachment. C20 diacid = O=C(O)CCCCCCCCCCCCCCCCCCC(=O)*; C18 diacid = O=C(O)CCCCCCCCCCCCCCCCC(=O)*; γGlu = O=C(O)[C@H](CCC(=O)[*:2])N[*:1]; αMeF = C[C@](N)(Cc1ccccc1)C(=O)O; AEEA = NCCOCCOCC(=O)O; Aib = CC(C)(N)C(=O)O

B1: Peptide 491 (peptide)
peptide: H[Aib]QGTFTSDVSK[αMeF]LDTK([AEEA-AEEA-γGlu-C18 diacid])RARDFVRWLL[Aib]TE-OH
modifications: N-terminus assumed
SMILES: CC(C)C[C@H](NC(=O)[C@H](Cc1c[nH]c2ccccc12)NC(=O)[C@H](CCCNC(=N)N)NC(=O)[C@@H](NC(=O)[C@H](Cc1ccccc1)NC(=O)[C@H](CC(=O)O)NC(=O)[C@H](CCCNC(=N)N)NC(=O)[C@H](C)NC(=O)[C@H](CCCNC(=N)N)NC(=O)[C@H](CCCCNC(=O)COCCOCCNC(=O)COCCOCCNC(=O)CC[C@H](NC(=O)CCCCCCCCCCCCCCCCC(=O)O)C(=O)O)NC(=O)[C@@H](NC(=O)[C@H](CC(=O)O)NC(=O)[C@H](CC(C)C)NC(=O)[C@](C)(Cc1ccccc1)NC(=O)[C@H](CCCCN)NC(=O)[C@H](CO)NC(=O)[C@@H](NC(=O)[C@H](CC(=O)O)NC(=O)[C@H](CO)NC(=O)[C@@H](NC(=O)[C@H](Cc1ccccc1)NC(=O)[C@@H](NC(=O)CNC(=O)[C@H](CCC(N)=O)NC(=O)C(C)(C)NC(=O)[C@@H](N)Cc1c[nH]cn1)[C@@H](C)O)[C@@H](C)O)C(C)C)[C@@H](C)O)C(C)C)C(=O)N[C@@H](CC(C)C)C(=O)NC(C)(C)C(=O)N[C@H](C(=O)N[C@@H](CCC(=O)O)C(=O)O)[C@@H](C)O
B2: Peptide 492 (peptide)
peptide: H[Aib]QGTFTSDVSK[αMeF]LDTK([AEEA-AEEA-γGlu-C20 diacid])RARDFVRWLL[Aib]TE-OH
modifications: N-terminus assumed
SMILES: CC(C)C[C@H](NC(=O)[C@H](Cc1c[nH]c2ccccc12)NC(=O)[C@H](CCCNC(=N)N)NC(=O)[C@@H](NC(=O)[C@H](Cc1ccccc1)NC(=O)[C@H](CC(=O)O)NC(=O)[C@H](CCCNC(=N)N)NC(=O)[C@H](C)NC(=O)[C@H](CCCNC(=N)N)NC(=O)[C@H](CCCCNC(=O)COCCOCCNC(=O)COCCOCCNC(=O)CC[C@H](NC(=O)CCCCCCCCCCCCCCCCCCC(=O)O)C(=O)O)NC(=O)[C@@H](NC(=O)[C@H](CC(=O)O)NC(=O)[C@H](CC(C)C)NC(=O)[C@](C)(Cc1ccccc1)NC(=O)[C@H](CCCCN)NC(=O)[C@H](CO)NC(=O)[C@@H](NC(=O)[C@H](CC(=O)O)NC(=O)[C@H](CO)NC(=O)[C@@H](NC(=O)[C@H](Cc1ccccc1)NC(=O)[C@@H](NC(=O)CNC(=O)[C@H](CCC(N)=O)NC(=O)C(C)(C)NC(=O)[C@@H](N)Cc1c[nH]cn1)[C@@H](C)O)[C@@H](C)O)C(C)C)[C@@H](C)O)C(C)C)C(=O)N[C@@H](CC(C)C)C(=O)NC(C)(C)C(=O)N[C@H](C(=O)N[C@@H](CCC(=O)O)C(=O)O)[C@@H](C)O
B3: Peptide 493 (peptide)
peptide: H[Aib]QGTFTSDVSK[αMeF]LDTK([AEEA-AEEA-γGlu-C18 diacid])RAQDFVRWLLR[Aib]K-OH
modifications: N-terminus assumed
SMILES: CC(C)C[C@H](NC(=O)[C@H](Cc1c[nH]c2ccccc12)NC(=O)[C@H](CCCNC(=N)N)NC(=O)[C@@H](NC(=O)[C@H](Cc1ccccc1)NC(=O)[C@H](CC(=O)O)NC(=O)[C@H](CCC(N)=O)NC(=O)[C@H](C)NC(=O)[C@H](CCCNC(=N)N)NC(=O)[C@H](CCCCNC(=O)COCCOCCNC(=O)COCCOCCNC(=O)CC[C@H](NC(=O)CCCCCCCCCCCCCCCCC(=O)O)C(=O)O)NC(=O)[C@@H](NC(=O)[C@H](CC(=O)O)NC(=O)[C@H](CC(C)C)NC(=O)[C@](C)(Cc1ccccc1)NC(=O)[C@H](CCCCN)NC(=O)[C@H](CO)NC(=O)[C@@H](NC(=O)[C@H](CC(=O)O)NC(=O)[C@H](CO)NC(=O)[C@@H](NC(=O)[C@H](Cc1ccccc1)NC(=O)[C@@H](NC(=O)CNC(=O)[C@H](CCC(N)=O)NC(=O)C(C)(C)NC(=O)[C@@H](N)Cc1c[nH]cn1)[C@@H](C)O)[C@@H](C)O)C(C)C)[C@@H](C)O)C(C)C)C(=O)N[C@@H](CC(C)C)C(=O)N[C@@H](CCCNC(=N)N)C(=O)NC(C)(C)C(=O)N[C@@H](CCCCN)C(=O)O
B4: Peptide 494 (peptide)
peptide: H[Aib]QGTFTSDVSK[αMeF]LDTK([AEEA-AEEA-γGlu-C20 diacid])RAQDFVRWLLR[Aib]K-OH
B5: Peptide 495 (peptide)
peptide: H[Aib]QGTFTSDVSK[αMeF]LDTK([AEEA-AEEA-γGlu-C18 diacid])RAQDFVRWLLR[Aib]K-NH2
modifications: N-terminus assumed
SMILES: CC(C)C[C@H](NC(=O)[C@H](Cc1c[nH]c2ccccc12)NC(=O)[C@H](CCCNC(=N)N)NC(=O)[C@@H](NC(=O)[C@H](Cc1ccccc1)NC(=O)[C@H](CC(=O)O)NC(=O)[C@H](CCC(N)=O)NC(=O)[C@H](C)NC(=O)[C@H](CCCNC(=N)N)NC(=O)[C@H](CCCCNC(=O)COCCOCCNC(=O)COCCOCCNC(=O)CC[C@H](NC(=O)CCCCCCCCCCCCCCCCC(=O)O)C(=O)O)NC(=O)[C@@H](NC(=O)[C@H](CC(=O)O)NC(=O)[C@H](CC(C)C)NC(=O)[C@](C)(Cc1ccccc1)NC(=O)[C@H](CCCCN)NC(=O)[C@H](CO)NC(=O)[C@@H](NC(=O)[C@H](CC(=O)O)NC(=O)[C@H](CO)NC(=O)[C@@H](NC(=O)[C@H](Cc1ccccc1)NC(=O)[C@@H](NC(=O)CNC(=O)[C@H](CCC(N)=O)NC(=O)C(C)(C)NC(=O)[C@@H](N)Cc1c[nH]cn1)[C@@H](C)O)[C@@H](C)O)C(C)C)[C@@H](C)O)C(C)C)C(=O)N[C@@H](CC(C)C)C(=O)N[C@@H](CCCNC(=N)N)C(=O)NC(C)(C)C(=O)N[C@@H](CCCCN)C(N)=O
B6: Peptide 496 (peptide)
peptide: H[Aib]QGTFTSDVSK[αMeF]LDTK([AEEA-AEEA-γGlu-C20 diacid])RAQDFVRWLLR[Aib]K-NH2
modifications: N-terminus assumed
SMILES: CC(C)C[C@H](NC(=O)[C@H](Cc1c[nH]c2ccccc12)NC(=O)[C@H](CCCNC(=N)N)NC(=O)[C@@H](NC(=O)[C@H](Cc1ccccc1)NC(=O)[C@H](CC(=O)O)NC(=O)[C@H](CCC(N)=O)NC(=O)[C@H](C)NC(=O)[C@H](CCCNC(=N)N)NC(=O)[C@H](CCCCNC(=O)COCCOCCNC(=O)COCCOCCNC(=O)CC[C@H](NC(=O)CCCCCCCCCCCCCCCCCCC(=O)O)C(=O)O)NC(=O)[C@@H](NC(=O)[C@H](CC(=O)O)NC(=O)[C@H](CC(C)C)NC(=O)[C@](C)(Cc1ccccc1)NC(=O)[C@H](CCCCN)NC(=O)[C@H](CO)NC(=O)[C@@H](NC(=O)[C@H](CC(=O)O)NC(=O)[C@H](CO)NC(=O)[C@@H](NC(=O)[C@H](Cc1ccccc1)NC(=O)[C@@H](NC(=O)CNC(=O)[C@H](CCC(N)=O)NC(=O)C(C)(C)NC(=O)[C@@H](N)Cc1c[nH]cn1)[C@@H](C)O)[C@@H](C)O)C(C)C)[C@@H](C)O)C(C)C)C(=O)N[C@@H](CC(C)C)C(=O)N[C@@H](CCCNC(=N)N)C(=O)NC(C)(C)C(=O)N[C@@H](CCCCN)C(N)=O
B7: Peptide 497 (peptide)
peptide: H[Aib]QGTFTSDVSK[αMeF]LDTK([AEEA-AEEA-γGlu-C18 diacid])RAQDFVRWLLR[Aib]A-OH
modifications: N-terminus assumed
SMILES: CC(C)C[C@H](NC(=O)[C@H](Cc1c[nH]c2ccccc12)NC(=O)[C@H](CCCNC(=N)N)NC(=O)[C@@H](NC(=O)[C@H](Cc1ccccc1)NC(=O)[C@H](CC(=O)O)NC(=O)[C@H](CCC(N)=O)NC(=O)[C@H](C)NC(=O)[C@H](CCCNC(=N)N)NC(=O)[C@H](CCCCNC(=O)COCCOCCNC(=O)COCCOCCNC(=O)CC[C@H](NC(=O)CCCCCCCCCCCCCCCCC(=O)O)C(=O)O)NC(=O)[C@@H](NC(=O)[C@H](CC(=O)O)NC(=O)[C@H](CC(C)C)NC(=O)[C@](C)(Cc1ccccc1)NC(=O)[C@H](CCCCN)NC(=O)[C@H](CO)NC(=O)[C@@H](NC(=O)[C@H](CC(=O)O)NC(=O)[C@H](CO)NC(=O)[C@@H](NC(=O)[C@H](Cc1ccccc1)NC(=O)[C@@H](NC(=O)CNC(=O)[C@H](CCC(N)=O)NC(=O)C(C)(C)NC(=O)[C@@H](N)Cc1c[nH]cn1)[C@@H](C)O)[C@@H](C)O)C(C)C)[C@@H](C)O)C(C)C)C(=O)N[C@@H](CC(C)C)C(=O)N[C@@H](CCCNC(=N)N)C(=O)NC(C)(C)C(=O)N[C@@H](C)C(=O)O
B8: Peptide 498 (peptide)
peptide: H[Aib]QGTFTSDVSK[αMeF]LDTK([AEEA-AEEA-γGlu-C20 diacid])RAQDFVRWLLR[Aib]A-OH
modifications: N-terminus assumed
SMILES: CC(C)C[C@H](NC(=O)[C@H](Cc1c[nH]c2ccccc12)NC(=O)[C@H](CCCNC(=N)N)NC(=O)[C@@H](NC(=O)[C@H](Cc1ccccc1)NC(=O)[C@H](CC(=O)O)NC(=O)[C@H](CCC(N)=O)NC(=O)[C@H](C)NC(=O)[C@H](CCCNC(=N)N)NC(=O)[C@H](CCCCNC(=O)COCCOCCNC(=O)COCCOCCNC(=O)CC[C@H](NC(=O)CCCCCCCCCCCCCCCCCCC(=O)O)C(=O)O)NC(=O)[C@@H](NC(=O)[C@H](CC(=O)O)NC(=O)[C@H](CC(C)C)NC(=O)[C@](C)(Cc1ccccc1)NC(=O)[C@H](CCCCN)NC(=O)[C@H](CO)NC(=O)[C@@H](NC(=O)[C@H](CC(=O)O)NC(=O)[C@H](CO)NC(=O)[C@@H](NC(=O)[C@H](Cc1ccccc1)NC(=O)[C@@H](NC(=O)CNC(=O)[C@H](CCC(N)=O)NC(=O)C(C)(C)NC(=O)[C@@H](N)Cc1c[nH]cn1)[C@@H](C)O)[C@@H](C)O)C(C)C)[C@@H](C)O)C(C)C)C(=O)N[C@@H](CC(C)C)C(=O)N[C@@H](CCCNC(=N)N)C(=O)NC(C)(C)C(=O)N[C@@H](C)C(=O)O

molecular target: human GLP-1 receptor (human, UniProt P43220); test: cell-based or functional assay

Binder | cAMP production EC50
B1 | 0.0736 nM
B2 | 0.212 nM
B3 | 0.0234 nM
B4 | 0.0987 nM
B5 | 0.0232 nM
B6 | 0.0649 nM
B7 | 0.0374 nM
B8 | 0.156 nM

molecular target: human glucagon receptor (human, UniProt P47871); test: cell-based or functional assay

Binder | cAMP production EC50
B1 | 0.232 nM
B2 | 0.374 nM
B3 | 0.166 nM
B4 | 0.212 nM
B5 | 0.38 nM
B6 | 0.482 nM
B7 | 0.118 nM
B8 | 0.17 nM
